# Measurements reported in PMC10244946.
# Like-named read-outs stand apart in the source and are kept apart here.
# Legend:
# [1] = biological target: HER2 (antigen of the Lindmo immunoreactive fraction assay; form not told); assay: Lindmo assay
# [2] = biological target: HER2 on HER2-expressing BT474 and SKOV-3 cells (human (endogenous in BT474 and SKOV-3)) (UniProt P04626); assay: radioligand binding
# [3] = biological target: HER2 on HER2-expressing BT474 and SKOV-3 cells (human (endogenous in BT474 and SKOV-3)) (UniProt P04626); assay: radioligand binding; remark: listed apart in the source
Substance,immunoreactive fraction [1] [%],Kd [2] [nM],Kd [3] [nM],percent of input activity bound to cells after 1 h at 4 °C [3] [%],percent associated with cells after 1 h at 4 °C [3] [%]
iso-[^131I]GMIB-PODS-5F7GGC (VHH),84,3.3,5.9,7.4,–
[^211At]MEAGMB-5F7GGC (VHH),69,–,3.4,–,–
[^177Lu]Lu-DOTA-PODS-5F7GGC (VHH),71.2,–,–,–,–
iso-[^211At]AGMB-PODS-5F7GGC (VHH),85.8,–,–,7.5,–
[^125I]MEGMIB-5F7GGC (VHH),–,–,–,–,5.8
